The values below come from patent US20170224833A1, “SELF-ASSEMBLING MOLECULES THAT ACCUMULATE IN ACIDIC TUMOR MICROENVIRONMENTS” (OHIO STATE INNOVATION FOUNDATION, priority 2014, published 2017).

Residues, ends and D or L forms follow the SMILES beside them. *: point of attachment. Palmitoyl = CCCCCCCCCCCCCCCC(=O)* A value given as a limit tells only on which side of the number the result lay.

A short description of data set [1]: Critical aggregation concentration (CAC), pyrene 1:3 method. The class given is physicochemical. As for the experimental part: For the CAC measurements, a series of solutions of the PA with concentrations ranging from 10 nM to 300 μM were prepared using serial dilutions in 150 mM NaCl and 2.2 mM CaCl2. The final concentration of pyrene in each solution was fixed to be 1.23 μM. This was followed by pH adjustment of the solutions using careful additions of HCl or NaOH. 70 μL of each solution was transferred to a 96-well plate and the fluorescence emission of pyrene was monitored using a hybrid reader fluorimeter (BioTek Synergy H4) at room temperature. The excitation wavelength was set at 335 nm. The ratio of the intensities of emissions at 376 nm and 392 nm were then plotted as a function of the PA concentration (log scale). The CAC was determined from an abrupt change in the slope of the plot using the least-squares fitting technique.
For CAC measurements, a series of solutions of either pure PA or PA mixture with concentrations ranging from 100-300 nM to 500-700 μM were prepared using serial dilutions in 150 mM NaCl and 2.2 mM CaCl2 (and 1.8 mM 20 kDa PEG in select samples). The final concentration of pyrene in each solution was fixed to be 4.5 μM. This was followed by pH adjustment of the solutions using careful additions of HCl or NaOH. 100 µL of each solution was transferred to a 96-well plate and the fluorescence emission of pyrene was monitored using a hybrid reader fluorimeter (BioTek Synergy H4) at room temperature. The excitation wavelength was set at 335 nm. The ratio of the intensities of emissions at 376 nm and 392 nm were then plotted as a function of the PA concentration (log scale). The CAC was determined from an abrupt change in the slope of the plot using the least-squares fitting technique.
The pyrene 1:3 method was used to determine CAC for the PAs (Aguiar, J., et al. J. Colloid Interface Sci. 2003 258:116-122). For both PA71 and PA68, CAC measurements were performed at various pH values (5-10). Samples of high PA concentration (300-750 μM) were prepared in deionized water containing 150 mM NaCl and 2.2 mM CaCl2. These samples were raised to 9 or greater pH using NaOH and heated at 80° C. for 30 minutes. Samples were then allowed to cool to room temperature and pH was altered to the desired value using dilute NaOH and HCl. Solutions containing only aqueous 150 mM NaCl and 2.2 mM CaCl2 and solutions containing these salts, a 1:1 solution of water and methanol, and 62 μM pyrene were also prepared. Each of these solutions was divided into various portions and adjusted to appropriate pH values. The PA solutions were serially diluted with the corresponding salt solutions with a total of 125 μL at each concentration. 5 μL of the pyrene containing solution as added to each dilution for a final pyrene concentration of 2.4 μM. Each diluted sample was probed for fluorescence with an excitation wavelength of 335 nm. Fluorescence was recorded with particular attention paid to the 376 nm and 392 nm emission peaks. The ratio of these two peaks was plotted versus PA concentration on a log scale. The CAC was determined from an abrupt change in the slope of the plot using the least-squares fitting technique.
Critical aggregation concentration (CAC) measurements were carried out to determine the concentration at which micelles or nanofibers begin to form by using the pyrene 1:3 method, (citation) All samples were basified to a pH of 10, stirred at 90° C. for 30 minutes in an oil bath and cooled to room temperature. HCl and NaOH were then added to set the PA solution specific pH value. PAs with concentrations ranging from 100 μM to 500 μM were serial diluted with 150 mM NaCl and 2.2 mM CaCl2. A pyrene solution was then added to each of the diluted samples, for a final pyrene concentration of 4.5 μM. 100 μL of each serial diluted sample were transferred into a 96-well plate and the fluorescence emission of the pyrene was monitored by a hybrid reader fluorimeter (BioTek Synergy H4) at room temperature with an excitation wavelength of 335 nm. […]

A short description of data set [2]: CD spectroscopy in artificial mouse serum (150 mM NaCl, 2.2 mM CaCl2, 1.8 mM 20 kDa PEG). As to conditions: both pure and artificial mouse serum. Format: physicochemical. The procedure:
Measurements were done on a Jasco-815 Circular Dichroism spectrometer using 0.5-1 cm path length quartz cuvettes. 500-10 μM of either pure PA or PA mixtures were prepared in 150 mM NaCl and 2.2 mM CaCl2 (and 1.8 mM 20 kDa PEG in select samples) by dilution from a concentrated PA stock (0.5-1 mM, pH 9). Double de-ionized Milli-Q water was used for preparing all solutions. The solutions were then heated at 80° C. for 30 minutes in a water bath and gradually cooled to room temperature. An Accumet XL15 pH meter (Fisher Scientific) coupled with an Orion Ross Ultra semi-micro electrode (8103BNUWP, Thermo Scientific) was used to adjust the pH of the solution to the desired value followed by collection of the CD spectra. Each trace shown was averaged over 3 accumulations and was baseline subtracted using aqueous solutions containing salts only. All spectra are cut-off below 200 nm due to absorption by NaCl and CaCl2. The same procedure was followed for the salt control samples with 3.0 and 4.0 mM CaCl2.
Finally, a medium that accurately replicated the ionic strength and the crowded environment of pure serum and enabled characterization of the PA self assembly behavior using CD and CAC measurements without interference from protein signals was created. This artificial serum solution contains 1.8 mM of 20 kDa PEG, 150 mM NaCl and 2.2 mM CaCl2. […]

For data set [3] the following is noted: 150 mM NaCl, 2.2 mM CaCl2; previously found (Ghosh 2012); cited from earlier work.
The mark [4] stands for this setting: pH 5, 150 mM NaCl, 2.2 mM CaCl2.

In the case of `CCCCCCCCCCCCCCCC(=O)N[C@H](C(=O)N[C@@H](C)C(=O)N[C@@H](C)C(=O)N[C@@H](C)C(=O)N[C@@H](CCC(=O)O)C(=O)N[C@@H](CCC(=O)O)C(=O)N[C@@H](CCC(=O)O)C(=O)N[C@@H](CCC(=O)O)C(N)=O)[C@@H](C)CC` [PA1] (Palmitoyl-IAAAEEEE-NH2), the “critical aggregation concentration (CAC)” value in data set [1] (pH 6.6) is 6.0 µM.
In the case of `CCCCCCCCCCCCCCCC(=O)N[C@@H](C)C(=O)N[C@H](C(=O)N[C@@H](C)C(=O)N[C@@H](C)C(=O)N[C@@H](CCC(=O)O)C(=O)N[C@@H](CCC(=O)O)C(=O)N[C@@H](CCC(=O)O)C(=O)N[C@@H](CCC(=O)O)C(N)=O)[C@@H](C)CC` [PA68] (Palmitoyl-AIAAEEEE-NH2), in data set [1] (comparable pH values), the “CAC, times lower than PA1” value was 3-5. For the same compound, the CAC in data set [1] (setting [4]) was 1.1 µM; in data set [1] (pH 10, 150 mM NaCl, 2.2 mM CaCl2) it was 7.5 µM.
Regarding “Palmitoyl-AAAIEEEE-NH2 (SMILES CCCCCCCCCCCCCCCC(=O)N[C@@H](C)C(=O)N[C@@H](C)C(=O)N[C@@H](C)C(=O)N[C@H](C(=O)N[C@@H](CCC(=O)O)C(=O)N[C@@H](CCC(=O)O)C(=O)N[C@@H](CCC(=O)O)C(=O)N[C@@H](CCC(=O)O)C(N)=O)[C@@H](C)CC) [PA70]”, the “aggregation state by pyrene 1:3 method” value in data set [1] (all pH and concentration values) is “in the aggregated state across all pH and concentration values”.
“Palmitoyl-AIAAEEEEK(DO3A:Gd)-NH2 (Palmitoyl-AIAAEEEEK(DO3A)-NH2; also: DO3A chelates Gd) [PA71]”: the “CAC (below the detectable limit)” value in data set [1] (all pH values tested except pH 10) lay within 200 to 300 nM. Further, the CAC in data set [1] (setting [4]) is 1.3 µM. Also, the “CAC, fold lower than PA5” value in data set [1] (pH ~7) is given as greater than 6.
Turning to “Palmitoyl-IAAAEEEEK(DO3A:Gd)-NH2 (Palmitoyl-IAAAEEEEK(DO3A)-NH2; also: DO3A chelates Gd) [PA5]”, in data set [2], the “morphology across pH” value is “remains nanofibers across all measured pH values”. The “pH of concentration independent transition from spherical micelles to nanofibers” value in data set [3] is listed as 6.0.
Consider “palmitoyl-YYAAEEEEEK(DO3A:Gd)-NH2 (Palmitoyl-YYAAEEEEEK(DO3A)-NH2; also: DO3A chelates Gd) [PA74]”, for which the “CAC higher than PA75” value in data set [1] (pH 6) is roughly 500%; in data set [1] (pH 8) it was 5%. The results for the CAC in data set [1] (pH 7.06) and in data set [1] (pH 9.02) were 9.3 µM and 21.6 µM, respectively.
